Results on six substances are retold here after publication PMC7806870.

Assay [1] concerns the target GLP-1 receptor (UniProt P43220).
Assay [2] shares this target. This is another data set of the same source.
Assay [3] concerns the target extracellular domain of the human β-klotho protein (human) (UniProt Q86Z14). In words: BLI. On the technique in general: In BLI a coated tip is dipped into the sample, and binding shifts an interference pattern.
For assay [4] the target is unchanged.
Assay [5] has the same target. This is another data set of the same source.

Sequence of extracellular domain of the human β-klotho protein (human) (Q86Z14 1-996): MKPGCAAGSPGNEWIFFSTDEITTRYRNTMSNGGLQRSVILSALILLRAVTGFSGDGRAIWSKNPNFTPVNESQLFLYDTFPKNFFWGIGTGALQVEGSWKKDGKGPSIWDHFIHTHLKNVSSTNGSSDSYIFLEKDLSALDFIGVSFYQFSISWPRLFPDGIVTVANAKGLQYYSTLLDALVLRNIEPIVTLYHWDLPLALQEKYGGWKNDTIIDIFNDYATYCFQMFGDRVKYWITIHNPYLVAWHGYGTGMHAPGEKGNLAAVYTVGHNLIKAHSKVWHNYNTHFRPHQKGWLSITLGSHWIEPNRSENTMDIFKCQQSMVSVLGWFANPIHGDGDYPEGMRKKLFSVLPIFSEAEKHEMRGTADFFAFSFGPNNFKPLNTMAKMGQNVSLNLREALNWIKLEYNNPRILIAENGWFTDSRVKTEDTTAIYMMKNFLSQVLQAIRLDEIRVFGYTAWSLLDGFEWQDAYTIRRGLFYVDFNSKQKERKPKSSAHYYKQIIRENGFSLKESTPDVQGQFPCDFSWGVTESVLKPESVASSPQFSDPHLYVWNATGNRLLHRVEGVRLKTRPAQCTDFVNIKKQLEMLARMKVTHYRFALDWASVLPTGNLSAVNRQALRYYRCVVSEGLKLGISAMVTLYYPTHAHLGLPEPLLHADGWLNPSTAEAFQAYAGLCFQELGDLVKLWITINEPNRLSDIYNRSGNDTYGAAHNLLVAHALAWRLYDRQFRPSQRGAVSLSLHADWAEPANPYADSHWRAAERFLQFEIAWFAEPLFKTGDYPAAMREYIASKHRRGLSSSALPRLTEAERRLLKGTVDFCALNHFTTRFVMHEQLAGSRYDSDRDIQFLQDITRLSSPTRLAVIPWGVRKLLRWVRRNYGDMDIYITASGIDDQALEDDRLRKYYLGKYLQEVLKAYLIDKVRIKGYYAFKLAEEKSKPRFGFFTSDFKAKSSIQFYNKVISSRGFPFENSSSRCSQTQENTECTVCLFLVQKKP
Sequence of GLP-1 receptor (P43220 24-463): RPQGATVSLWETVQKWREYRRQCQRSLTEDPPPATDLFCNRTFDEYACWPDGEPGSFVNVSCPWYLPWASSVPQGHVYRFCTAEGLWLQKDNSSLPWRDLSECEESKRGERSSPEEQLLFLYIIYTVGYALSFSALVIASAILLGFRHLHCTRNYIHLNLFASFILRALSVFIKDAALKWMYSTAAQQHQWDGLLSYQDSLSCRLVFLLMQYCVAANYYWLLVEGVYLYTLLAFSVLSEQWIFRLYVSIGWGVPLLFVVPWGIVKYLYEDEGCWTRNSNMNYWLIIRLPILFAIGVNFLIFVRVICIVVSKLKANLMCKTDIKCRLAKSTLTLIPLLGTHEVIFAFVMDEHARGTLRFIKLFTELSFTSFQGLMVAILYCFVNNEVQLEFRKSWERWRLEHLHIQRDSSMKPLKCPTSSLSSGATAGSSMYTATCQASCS

With Dulaglutide (Fc fusion), the EC50 of cAMP production in HEK293 cells expressing GLP-1R alone (Fig. 2b) in the assay with GLP-1 receptor [1] worked out at 0.06 nM. Besides, in the assay with GLP-1 receptor [2], the EC50 of cAMP in HEK293 cells expressing both GLP-1R and β-Klotho (Fig. 2c) came to 0.21 nM.

The substance Fc-FGF21 (L98R, P171A) (Fc fusion) registered a Kd in assay [3] of 0.767 nM. As for “Fc-FGF21 (L98R, S167H, P171A) (Fc fusion)”, the Kd in assay [3] was found to be 0.59 nM. This Kd and that of the substance before are within 1.5-fold of each other. In the case of “Fc-FGF21 (L98R, S167H, P171A, R175L) (Fc fusion)”, in assay [4], the EC50 of ERK1/2 phosphorylation in HEK293 cells expressing β-Klotho (Fig. 2a) is 1.13 nM. In assay [5], the EC50 of cAMP in HEK293 cells expressing both GLP-1R and β-Klotho (Fig. 2c) is 305 nM. The same substance had a Kd in assay [3] of 0.316 nM.

“GLP-1-Fc-FGF21 (L98R, S167H, P171A) (Fc fusion)”: in assay [3], the Kd was 0.24 nM. In other words, the sub-nanomolar range. In the case of “GLP-1-Fc-FGF21 (L98R, S167H, P171A, R175L) (Fc fusion)”, the EC50 of cAMP production in HEK293 cells expressing GLP-1R alone (Fig. 2b) with GLP-1 receptor [1] stood at 0.15 nM. The substance also came in with an EC50 of ERK1/2 phosphorylation in HEK293 cells expressing β-Klotho (Fig. 2a) in assay [4] of 1.52 nM. This substance also came in with a Kd in assay [3] of 0.0924 nM.

Broadly, the Kd is the free concentration of one partner at which half of the binding sites on the other are occupied at equilibrium, for simple one-to-one binding. A high value points to a looser complex.
